Assay results: patent US9815881B2, “Method of inducing labor or treating pre-eclampsia by administering relaxin analogs” (The Board of Trustees of the Leland Stanford Junior …, priority 2009, dated 2017)
Entries after “also recorded” stand apart in the source; their conditions may differ. Where no end group is shown, it is not given here.

Key:
[1] = molecular target: T1, LGR7 (Homo sapiens, UniProt Q9HBX9); assay: Receptor-binding assay: competition for 125I-labeled RLN2 binding to LGR7-expressing HEK293T cells; conditions: for LGR7-binding activity (result in words): competition for labeled RLN2 binding to LGR7
T1 construct: HEK293T cells stably expressing recombinant LGR7 or LGR8; expressed in transfected cells
T1 sequence (Q9HBX9 1-757): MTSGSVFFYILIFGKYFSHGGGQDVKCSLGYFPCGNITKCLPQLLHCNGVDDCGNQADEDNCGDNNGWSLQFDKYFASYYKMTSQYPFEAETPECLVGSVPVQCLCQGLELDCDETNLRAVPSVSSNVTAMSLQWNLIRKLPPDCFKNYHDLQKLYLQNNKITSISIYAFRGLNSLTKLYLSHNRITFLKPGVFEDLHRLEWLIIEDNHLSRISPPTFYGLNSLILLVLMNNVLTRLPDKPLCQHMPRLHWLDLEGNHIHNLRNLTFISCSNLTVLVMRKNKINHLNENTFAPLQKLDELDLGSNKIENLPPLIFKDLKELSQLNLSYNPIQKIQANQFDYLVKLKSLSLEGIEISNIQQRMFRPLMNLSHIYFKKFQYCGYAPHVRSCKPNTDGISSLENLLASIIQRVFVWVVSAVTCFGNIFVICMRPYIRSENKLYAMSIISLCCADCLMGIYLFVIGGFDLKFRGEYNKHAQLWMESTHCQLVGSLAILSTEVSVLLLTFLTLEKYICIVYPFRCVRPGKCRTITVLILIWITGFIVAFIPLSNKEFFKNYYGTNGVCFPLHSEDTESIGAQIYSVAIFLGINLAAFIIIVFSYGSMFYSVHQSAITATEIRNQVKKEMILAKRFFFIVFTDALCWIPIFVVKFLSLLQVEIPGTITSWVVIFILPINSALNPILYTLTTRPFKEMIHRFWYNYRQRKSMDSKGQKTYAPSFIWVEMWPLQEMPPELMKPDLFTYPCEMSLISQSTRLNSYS
Protocol: (§1) To determine the binding characteristics of wild type and mutant peptides, HEK293T cells expressing LGR7 or LGR8 were grown to 90% confluence, collected by centrifugation at 3000×g for 2 min, and washed two times in 2 ml of ice-cold binding buffer. Cells were resuspended in ice-cold binding buffer, and aliquots of cell suspension were incubated with increasing doses of purified recombinant peptides in the presence of 0.025 pmol of ^125I-labeled RLN2 tracer (Phoenix Pharmaceuticals, Burlingame, Calif.) at room temperature for 2 h. After washing three times in an ice-cold binding buffer, radioactivity bound to the cells was measured using a γ-counter (EG&G Wallace, Gaithersburg, Md.). Total binding was determined in the absence, and nonspecific binding in the presence, of 25 nmol of unlabeled RLN2. In regular assays, total binding was ˜30,000 cpm, and nonspecific binding amounted to less than 20% of the total binding. Data points were collected in triplicate, and similar results were obtained in at least two independent assays.
(§2) Receptor-activation and receptor binding activity curves generated in nonlinear regression analyses (Prism; GraphPad Software, San Diego, Calif.) were evaluated relative to the samples without hormone treatment. In all cases data are reported as the mean±S.E. of assays in triplicate or quadruplicate. Statistically significant responses (p<0.05) were determined for each stimulated response to the average nonspecific response from control samples using analysis of variance and Student's t test.

[2] = molecular target: T2, LGR8 (Homo sapiens, UniProt Q8WXD0); assay: Receptor-activation analysis: cAMP production in LGR8-expressing HEK293T cells; assay type: cell-based; conditions: for LGR8-activation activity (result in words): LGR8-expressing HEK293T cells
T2 construct: HEK293T cells stably expressing recombinant LGR7 or LGR8; expressed in transfected cells
T2 sequence (Q8WXD0 whole entry): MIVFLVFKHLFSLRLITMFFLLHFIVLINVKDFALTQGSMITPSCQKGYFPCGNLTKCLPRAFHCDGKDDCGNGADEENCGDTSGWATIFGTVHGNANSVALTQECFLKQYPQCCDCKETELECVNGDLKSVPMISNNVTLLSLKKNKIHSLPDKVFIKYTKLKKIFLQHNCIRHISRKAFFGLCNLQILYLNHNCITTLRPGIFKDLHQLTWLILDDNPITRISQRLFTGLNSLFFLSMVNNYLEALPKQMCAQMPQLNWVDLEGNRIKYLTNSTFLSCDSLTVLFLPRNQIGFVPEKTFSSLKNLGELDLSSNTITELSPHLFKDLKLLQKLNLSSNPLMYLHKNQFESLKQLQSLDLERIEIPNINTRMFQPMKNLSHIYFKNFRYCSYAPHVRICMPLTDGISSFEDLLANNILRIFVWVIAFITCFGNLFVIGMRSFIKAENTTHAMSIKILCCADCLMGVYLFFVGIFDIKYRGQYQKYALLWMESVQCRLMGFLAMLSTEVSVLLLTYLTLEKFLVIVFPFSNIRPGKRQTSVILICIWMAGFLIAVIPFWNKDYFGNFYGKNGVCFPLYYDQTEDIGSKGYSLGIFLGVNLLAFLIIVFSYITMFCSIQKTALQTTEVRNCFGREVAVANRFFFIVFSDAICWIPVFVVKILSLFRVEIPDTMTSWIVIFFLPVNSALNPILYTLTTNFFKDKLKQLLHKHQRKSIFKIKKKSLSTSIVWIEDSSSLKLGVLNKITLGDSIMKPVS
Protocol: (§3) The bioactivity of relaxin family peptides was determined based on the stimulation of adenylate cyclase activity in HEK293T cells stably expressing recombinant LGR7 or LGR8. Stable LGR7- or LGR8-expressing cells were maintained in Dulbecco's modified Eagle's medium/F-12 media supplemented with […] Zeocin (Invitrogen). After seeding at a density of 2×10^5 cells per well in 500 μl of Dulbecco's modified Eagle's medium/F-12 medium containing 0.1% bovine serum albumin in 48-well plates, cells were preincubated at 37° C. for 30 min in the presence of 0.25 mM 3-isobutyl-1-methylxanthine before treatment with increasing concentrations of peptides (from 0 to 100 nM) in quadruplicate. Twelve hours after treatment, the culture was reacted with acetic anhydride/triethylamine, and total cAMP content in cell lysates was measured using a specific cAMP radioimmunoassay. A nontagged human RLN2 peptide was used as a standard to verify the bioactivity of tagged RLN2 peptides.
as §2

[3] = molecular target: T1, LGR7; assay: Receptor-activation analysis: cAMP production in LGR7-expressing HEK293T cells; assay type: cell-based; conditions: for LGR7-activation activity (result in words): LGR7-expressing HEK293T cells
Protocol: as §3, §2

[4] = molecular target: T2, LGR8; assay: Receptor-binding assay: competition for 125I-labeled RLN2 binding to LGR8-expressing HEK293T cells; conditions: for LGR8-binding activity (result in words): competition for labeled RLN2 binding to LGR8
Protocol: as §1, §2

Molecule: RLN2 R^A22A: RLN2 mutant with alanine substitution at the ArgA22 position (chain 1 SWMEEVIKLCGRELVRAQIAICGMSTWSHHHHHH; chain 2 QLYSALANKCCHVGCTKRSLAAFC; not fully specified; ends and bridges not checked)
- LGR7-binding activity (result in words) [1]: affinities similar to that of wild type peptides
- LGR8-activation activity (result in words) [2]: minimal effect
- LGR7-activation activity (result in words) [3]: minimal effect

Molecule: RLN2 P^A23A: RLN2 mutant with alanine substitution at the PheA23 position (chain 1 SWMEEVIKLCGRELVRAQIAICGMSTWSHHHHHH; chain 2 QLYSALANKCCHVGCTKRSLARAC; not fully specified; ends and bridges not checked)
- LGR7-binding activity (result in words) ([1]; listed as RLN2 FA23A): affinities similar to that of wild type peptides
- LGR7-binding activity (result in words) ([1]; listed as RLN2 F^A23A): without an effect on LGR7-binding activity
- LGR8-activation activity (result in words) ([2]; listed as RLN2 FA23A): lacks an LGR8-activation activity
- LGR8-activation activity (result in words) ([2]; listed as RLN2 F^A23A): ablated
- LGR7-activation activity (result in words) ([3]; listed as FA23A): preferentially activate LGR7
- LGR7-activation activity (result in words) ([3]; listed as RLN2 FA23A): retains an LGR7-activation activity similar to that of wild type peptides
- LGR8-binding activity (result in words) ([4]; listed as RLN2 FA23A): significantly reduced the affinity for LGR8
- LGR8-binding activity (result in words) ([4]; listed as RLN2 F^A23A): significantly reduced

Molecule: RLN2^A22-23: RLN2 mutant with alanine substitution at the A22-23 region of the A chain (chain 1 SWMEEVIKLCGRELVRAQIAICGMSTWSHHHHHH; chain 2 QLYSALANKCCHVGCTKRSLAAAC; not fully specified; ends and bridges not checked)
- LGR7-binding activity (result in words) [1]: reduced affinity for LGR7
- LGR8-activation activity (result in words) [2]: ablates LGR8, but not LGR7, activation activity; also recorded: almost abolished
- LGR8-binding activity (result in words) [4]: lost its LGR8-binding activity

B1: WT RLN2: recombinant tagged wild type human relaxin H2 (RLN2) (protein, listed as Homo sapiens)
chain: MPRLFFFHLLGVCLLLNQFSRAVADSWMEEVIKLCGRELVRAQIAICGMSTWSKRSLSQEDAPQTPRPVAEIVPSFINKDTETINMMSEFVANLPQELKLTLSEMQPALPQLQQHVPVLKDSSLLFEEFKKLIRNRQSEAADSSPSELKYLGLDTHSRKKRQLYSALANKCCHVGCTKRSLARFC
modifications: tag; RLN2 polypeptide
- pIC50 in competition for RLN2 binding to LGR7 ([1]; 125I-labeled RLN2 tracer, LGR7-expressing HEK293T cells, mean ± S.E.): 8.72 ± 0.06
- pEC50 on the activation of LGR8 ([2]; HEK293T cells stably expressing LGR8, mean ± S.E., ND = pEC50 not measurable): 7.41 ± 0.14
- LGR8-activation activity (result in words) [2]: activates both receptors at the nanomolar range
- pEC50 on the activation of LGR7 ([3]; HEK293T cells stably expressing LGR7, mean ± S.E., ND = pEC50 not measurable): 9.30 ± 0.04
- LGR7-activation activity (result in words) [3]: activates both receptors at the nanomolar range
- pIC50 in competition for RLN2 binding to LGR8 ([4]; 125I-labeled RLN2 tracer, LGR8-expressing HEK293T cells, mean ± S.E., ND = pIC50 not measurable): 7.90 ± 0.16
